# From patent US20240109954A1
# Target: EBOV GP displayed on vesicular stomatitis virus (VSV) pseudovirions (Ebola virus) (UniProt Q05320)
# Assay: cell-based or functional assay
# Chain of EBOV GP displayed on vesicular stomatitis virus (VSV) pseudovirions (Ebola virus) (Q05320 33-676 limits assumed): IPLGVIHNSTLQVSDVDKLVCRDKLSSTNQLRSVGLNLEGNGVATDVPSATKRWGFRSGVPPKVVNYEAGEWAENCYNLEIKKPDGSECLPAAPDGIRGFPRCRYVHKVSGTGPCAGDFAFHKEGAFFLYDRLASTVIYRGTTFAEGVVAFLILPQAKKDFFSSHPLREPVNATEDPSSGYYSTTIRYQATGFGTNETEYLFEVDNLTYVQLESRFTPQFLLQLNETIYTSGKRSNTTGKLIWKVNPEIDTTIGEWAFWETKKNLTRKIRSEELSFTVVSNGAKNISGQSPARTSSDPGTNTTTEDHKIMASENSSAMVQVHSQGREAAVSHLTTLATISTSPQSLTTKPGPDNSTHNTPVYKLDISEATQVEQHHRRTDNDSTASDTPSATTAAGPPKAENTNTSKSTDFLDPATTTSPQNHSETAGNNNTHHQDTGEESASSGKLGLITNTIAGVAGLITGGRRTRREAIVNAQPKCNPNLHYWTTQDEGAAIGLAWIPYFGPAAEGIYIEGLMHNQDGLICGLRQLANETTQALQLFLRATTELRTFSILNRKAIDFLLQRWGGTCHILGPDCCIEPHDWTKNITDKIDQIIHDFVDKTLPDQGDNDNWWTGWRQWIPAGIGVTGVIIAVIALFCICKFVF
substance,measurement,value
KZ52 (antibody),"IC50, neutralization of VSV pseudotyped to display EBOV GP",0.08 µg/mL
